T1: LRRC7, Q96NW7
T1 sequence (Q96NW7 1440-1537, limits assumed, looked up): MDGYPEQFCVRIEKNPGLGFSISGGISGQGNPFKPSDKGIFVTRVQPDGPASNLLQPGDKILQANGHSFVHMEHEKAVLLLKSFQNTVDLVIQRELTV

T2: GRIP1_7, Q9Y3R0
T2 sequence (Q9Y3R0 999-1096, limits assumed, looked up): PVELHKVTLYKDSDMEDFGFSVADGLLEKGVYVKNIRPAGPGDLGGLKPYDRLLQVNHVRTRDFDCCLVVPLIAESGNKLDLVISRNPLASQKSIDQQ

T3: PARD3B_1, Q8TEW8
T3 sequence (Q8TEW8 196-299, limits assumed, looked up): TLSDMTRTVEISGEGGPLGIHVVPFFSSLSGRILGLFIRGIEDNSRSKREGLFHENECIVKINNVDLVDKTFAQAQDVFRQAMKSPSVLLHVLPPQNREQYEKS

T4: LNX2_2, Q8N448
T4 sequence (Q8N448 334-432, limits assumed, looked up): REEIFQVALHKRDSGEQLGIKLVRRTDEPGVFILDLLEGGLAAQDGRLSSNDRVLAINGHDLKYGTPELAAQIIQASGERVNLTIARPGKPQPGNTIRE

T5: DFNB31_3, Q9P202
T5 sequence (Q9P202 811-907, limits assumed, looked up): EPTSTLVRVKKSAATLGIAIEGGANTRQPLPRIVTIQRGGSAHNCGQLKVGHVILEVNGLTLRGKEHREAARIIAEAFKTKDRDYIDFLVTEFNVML

T6: SIPA1L2, Q9P2F8
T6 sequence (Q9P2F8 945-1036, limits assumed, looked up): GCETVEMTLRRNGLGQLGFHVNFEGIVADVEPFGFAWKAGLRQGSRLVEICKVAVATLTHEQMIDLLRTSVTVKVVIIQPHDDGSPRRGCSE

T7: TIAM2, Q8IVF5
T7 sequence (Q8IVF5 885-986, limits assumed, looked up): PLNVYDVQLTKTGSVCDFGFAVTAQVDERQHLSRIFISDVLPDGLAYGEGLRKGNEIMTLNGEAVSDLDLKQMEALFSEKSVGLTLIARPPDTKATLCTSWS

T8: GRIP1_4, Q9Y3R0
T8 sequence (Q9Y3R0 467-571, limits assumed, looked up): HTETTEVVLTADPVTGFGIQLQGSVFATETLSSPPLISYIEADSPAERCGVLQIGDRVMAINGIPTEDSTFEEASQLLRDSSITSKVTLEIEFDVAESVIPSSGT

T9: DLG3_1, Q92796
T9 sequence (Q92796 125-227, limits assumed, looked up): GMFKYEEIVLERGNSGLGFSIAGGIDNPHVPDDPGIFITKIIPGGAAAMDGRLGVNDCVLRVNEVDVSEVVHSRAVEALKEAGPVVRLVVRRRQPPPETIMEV

T10: MPDZ_10, O75970
T10 sequence (O75970 1624-1722, limits assumed, looked up): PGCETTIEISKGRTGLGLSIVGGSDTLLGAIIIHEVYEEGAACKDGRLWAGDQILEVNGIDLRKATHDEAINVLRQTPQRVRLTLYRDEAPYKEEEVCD

T11: PCLO, Q9Y6V0
T11 sequence (Q9Y6V0 4491-4600, limits assumed, looked up): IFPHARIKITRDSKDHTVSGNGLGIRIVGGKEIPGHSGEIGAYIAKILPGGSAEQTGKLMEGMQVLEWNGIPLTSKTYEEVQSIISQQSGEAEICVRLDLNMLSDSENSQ

B1: NECTIN3, Q9NQS3 (peptide)
chain: SVISRREWYV
B2: SMCHD1, A6NHR9 (peptide)
chain: QNRIITKTDV

molecular target: T1, LRRC7, Q96NW7; test: holdup assay; set-up: key: below the threshold = too weak to quantify, mostly under pKd 3.1 to 4; conditions: plain residues with an end cap or a label only (N-terminal biotin on a linker: ado-ado)

Row | pKd | Binder
1 | 3.52 | B1
2 | below the threshold | B2

molecular target: T2, GRIP1_7, Q9Y3R0; test: holdup assay; set-up: key: below the threshold = too weak to quantify, mostly under pKd 3.1 to 4; conditions: plain residues with an end cap or a label only (N-terminal biotin on a linker: ado-ado)

Row | pKd | Binder
3 | 5.11 | B1
4 | below the threshold | B2

molecular target: AHNAK1, Q09666; test: holdup assay; set-up: key: below the threshold = too weak to quantify, mostly under pKd 3.1 to 4; conditions: plain residues with an end cap or a label only (N-terminal biotin on a linker: ado-ado)
Sequence (Q09666 4-100): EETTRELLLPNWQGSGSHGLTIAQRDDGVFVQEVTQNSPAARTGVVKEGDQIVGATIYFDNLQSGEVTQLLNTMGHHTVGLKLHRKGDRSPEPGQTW

Row | pKd | Binder
5 | below the threshold | B1
6 | below the threshold | B2

molecular target: TJP1_2, Q07157; test: holdup assay; set-up: key: below the threshold = too weak to quantify, mostly under pKd 3.1 to 4; conditions: plain residues with an end cap or a label only (N-terminal biotin on a linker: ado-ado)
Sequence (Q07157 181-274): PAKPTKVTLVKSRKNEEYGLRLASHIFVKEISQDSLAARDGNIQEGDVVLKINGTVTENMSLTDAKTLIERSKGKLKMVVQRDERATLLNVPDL

Row | pKd | Binder
7 | 3.82 | B1
8 | below the threshold | B2

molecular target: T3, PARD3B_1, Q8TEW8; test: holdup assay; set-up: key: below the threshold = too weak to quantify, mostly under pKd 3.1 to 4; conditions: plain residues with an end cap or a label only (N-terminal biotin on a linker: ado-ado)

Row | pKd | Binder
9 | 4.79 | B1
10 | below the threshold | B2

molecular target: MAGI2_6, Q86UL8; test: holdup assay; set-up: key: below the threshold = too weak to quantify, mostly under pKd 3.1 to 4; conditions: plain residues with an end cap or a label only (N-terminal biotin on a linker: ado-ado)
Sequence (Q86UL8 1141-1229): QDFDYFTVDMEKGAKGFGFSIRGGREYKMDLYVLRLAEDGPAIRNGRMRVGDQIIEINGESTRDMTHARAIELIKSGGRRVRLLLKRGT

Row | pKd | Binder
11 | 3.76 | B1
12 | below the threshold | B2

molecular target: DLG2_2, Q15700; test: holdup assay; set-up: key: below the threshold = too weak to quantify, mostly under pKd 3.1 to 4; conditions: plain residues with an end cap or a label only (N-terminal biotin on a linker: ado-ado)
Sequence (Q15700 189-283): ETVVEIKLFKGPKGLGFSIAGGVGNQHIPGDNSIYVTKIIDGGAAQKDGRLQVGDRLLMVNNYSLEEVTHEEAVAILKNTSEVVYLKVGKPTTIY

Row | pKd | Binder
13 | 3.49 | B1
14 | 3.93 | B2

molecular target: T4, LNX2_2, Q8N448; test: holdup assay; set-up: key: below the threshold = too weak to quantify, mostly under pKd 3.1 to 4; conditions: plain residues with an end cap or a label only (N-terminal biotin on a linker: ado-ado)

Row | pKd | Binder
15 | 5.15 | B1
16 | below the threshold | B2

molecular target: SCRIB_2, Q14160; test: holdup assay; set-up: key: below the threshold = too weak to quantify, mostly under pKd 3.1 to 4; conditions: plain residues with an end cap or a label only (N-terminal biotin on a linker: ado-ado)
Sequence (Q14160 857-960): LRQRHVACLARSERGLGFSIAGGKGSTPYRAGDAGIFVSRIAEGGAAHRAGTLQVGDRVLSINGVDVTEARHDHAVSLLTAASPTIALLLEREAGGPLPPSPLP

Row | pKd | Binder
17 | below the threshold | B1
18 | below the threshold | B2

molecular target: HTRA1, Q92743; test: holdup assay; set-up: key: below the threshold = too weak to quantify, mostly under pKd 3.1 to 4; conditions: plain residues with an end cap or a label only (N-terminal biotin on a linker: ado-ado)
Sequence (Q92743 360-477): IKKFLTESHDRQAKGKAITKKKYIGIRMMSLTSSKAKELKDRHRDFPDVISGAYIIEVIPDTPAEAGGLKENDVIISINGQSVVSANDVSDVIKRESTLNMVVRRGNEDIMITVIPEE

Row | pKd | Binder
19 | 5.62 | B1
20 | below the threshold | B2

molecular target: T5, DFNB31_3, Q9P202; test: holdup assay; set-up: key: below the threshold = too weak to quantify, mostly under pKd 3.1 to 4; conditions: plain residues with an end cap or a label only (N-terminal biotin on a linker: ado-ado)

Row | pKd | Binder
21 | 3.52 | B1
22 | below the threshold | B2

molecular target: PDLIM1, O00151; test: holdup assay; set-up: key: below the threshold = too weak to quantify, mostly under pKd 3.1 to 4; conditions: plain residues with an end cap or a label only (N-terminal biotin on a linker: ado-ado)
Sequence (O00151 1-87): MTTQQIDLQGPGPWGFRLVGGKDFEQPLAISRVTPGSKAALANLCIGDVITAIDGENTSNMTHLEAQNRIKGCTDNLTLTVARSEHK

Row | pKd | Binder
23 | below the threshold | B1
24 | below the threshold | B2

molecular target: MAGI2_3, Q86UL8; test: holdup assay; set-up: key: below the threshold = too weak to quantify, mostly under pKd 3.1 to 4; conditions: plain residues with an end cap or a label only (N-terminal biotin on a linker: ado-ado)
Sequence (Q86UL8 600-682): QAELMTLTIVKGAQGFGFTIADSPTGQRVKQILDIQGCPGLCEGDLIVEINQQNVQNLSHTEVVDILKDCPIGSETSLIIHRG

Row | pKd | Binder
25 | below the threshold | B1
26 | below the threshold | B2

molecular target: GRID2IP_1, A4D2P6; test: holdup assay; set-up: key: below the threshold = too weak to quantify, mostly under pKd 3.1 to 4; conditions: plain residues with an end cap or a label only (N-terminal biotin on a linker: ado-ado)
Sequence (A4D2P6 1-87): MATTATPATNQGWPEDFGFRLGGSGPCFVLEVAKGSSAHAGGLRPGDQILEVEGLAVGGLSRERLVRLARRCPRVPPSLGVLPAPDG

Row | pKd | Binder
27 | below the threshold | B1
28 | below the threshold | B2

molecular target: SCRIB_3, Q14160; test: holdup assay; set-up: key: below the threshold = too weak to quantify, mostly under pKd 3.1 to 4; conditions: plain residues with an end cap or a label only (N-terminal biotin on a linker: ado-ado)
Sequence (Q14160 999-1103): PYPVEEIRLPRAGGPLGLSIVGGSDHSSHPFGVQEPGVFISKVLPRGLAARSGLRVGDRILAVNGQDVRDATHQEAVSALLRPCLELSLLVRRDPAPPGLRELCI

Row | pKd | Binder
29 | 3.72 | B1
30 | 3.81 | B2

molecular target: T6, SIPA1L2, Q9P2F8; test: holdup assay; set-up: key: below the threshold = too weak to quantify, mostly under pKd 3.1 to 4; conditions: plain residues with an end cap or a label only (N-terminal biotin on a linker: ado-ado)

Row | pKd | Binder
31 | below the threshold | B1
32 | below the threshold | B2

molecular target: NOS1, P29475; test: holdup assay; set-up: key: below the threshold = too weak to quantify, mostly under pKd 3.1 to 4; conditions: plain residues with an end cap or a label only (N-terminal biotin on a linker: ado-ado)
Sequence (P29475 9-101): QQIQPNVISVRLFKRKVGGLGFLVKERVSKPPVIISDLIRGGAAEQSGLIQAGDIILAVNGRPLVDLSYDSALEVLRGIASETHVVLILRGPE

Row | pKd | Binder
33 | 4.04 | B1
34 | below the threshold | B2

molecular target: T7, TIAM2, Q8IVF5; test: holdup assay; set-up: key: below the threshold = too weak to quantify, mostly under pKd 3.1 to 4; conditions: plain residues with an end cap or a label only (N-terminal biotin on a linker: ado-ado)

Row | pKd | Binder
35 | 5.1 | B1
36 | below the threshold | B2

molecular target: T8, GRIP1_4, Q9Y3R0; test: holdup assay; set-up: key: below the threshold = too weak to quantify, mostly under pKd 3.1 to 4; conditions: plain residues with an end cap or a label only (N-terminal biotin on a linker: ado-ado)

Row | pKd | Binder
37 | below the threshold | B1
38 | below the threshold | B2

molecular target: LAP2, Q96RT1; test: holdup assay; set-up: key: below the threshold = too weak to quantify, mostly under pKd 3.1 to 4; conditions: plain residues with an end cap or a label only (N-terminal biotin on a linker: ado-ado)
Sequence (Q96RT1 other isoform, or with tags, fused parts or gaps): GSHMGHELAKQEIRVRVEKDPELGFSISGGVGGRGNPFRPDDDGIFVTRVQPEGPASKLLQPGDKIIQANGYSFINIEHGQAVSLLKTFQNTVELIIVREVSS

Row | pKd | Binder
39 | 3.59 | B1
40 | below the threshold | B2

molecular target: T9, DLG3_1, Q92796; test: holdup assay; set-up: key: below the threshold = too weak to quantify, mostly under pKd 3.1 to 4; conditions: plain residues with an end cap or a label only (N-terminal biotin on a linker: ado-ado)

Row | pKd | Binder
41 | below the threshold | B1
42 | below the threshold | B2

molecular target: T10, MPDZ_10, O75970; test: holdup assay; set-up: key: below the threshold = too weak to quantify, mostly under pKd 3.1 to 4; conditions: plain residues with an end cap or a label only (N-terminal biotin on a linker: ado-ado)

Row | pKd | Binder
43 | below the threshold | B1
44 | 3.97 | B2

molecular target: NHERF4_2, Q86UT5; test: holdup assay; set-up: key: below the threshold = too weak to quantify, mostly under pKd 3.1 to 4; conditions: plain residues with an end cap or a label only (N-terminal biotin on a linker: ado-ado)
Sequence (Q86UT5 220-308): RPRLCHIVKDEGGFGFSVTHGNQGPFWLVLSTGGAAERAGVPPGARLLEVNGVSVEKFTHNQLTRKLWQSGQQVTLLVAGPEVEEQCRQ

Row | pKd | Binder
45 | below the threshold | B1
46 | below the threshold | B2

molecular target: Inadl_1, Q8NI35; test: holdup assay; set-up: key: below the threshold = too weak to quantify, mostly under pKd 3.1 to 4; conditions: plain residues with an end cap or a label only (N-terminal biotin on a linker: ado-ado)
Sequence (Q8NI35 113-229): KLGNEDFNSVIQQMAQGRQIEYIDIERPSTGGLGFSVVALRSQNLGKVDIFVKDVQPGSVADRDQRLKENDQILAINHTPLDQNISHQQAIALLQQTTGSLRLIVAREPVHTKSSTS

Row | pKd | Binder
47 | 4.25 | B1
48 | below the threshold | B2

molecular target: T11, PCLO, Q9Y6V0; test: holdup assay; set-up: key: below the threshold = too weak to quantify, mostly under pKd 3.1 to 4; conditions: plain residues with an end cap or a label only (N-terminal biotin on a linker: ado-ado)

Row | pKd | Binder
49 | below the threshold | B1
50 | below the threshold | B2

molecular target: DLG4_2, P78352; test: holdup assay; set-up: key: below the threshold = too weak to quantify, mostly under pKd 3.1 to 4; conditions: plain residues with an end cap or a label only (N-terminal biotin on a linker: ado-ado)
Sequence (P78352 155-259): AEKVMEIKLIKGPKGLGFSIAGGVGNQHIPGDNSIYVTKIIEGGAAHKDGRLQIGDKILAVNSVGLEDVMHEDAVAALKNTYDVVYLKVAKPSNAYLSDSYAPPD

Row | pKd | Binder
51 | 3.75 | B1
52 | 4.15 | B2

molecular target: DLG1_1, Q12959; test: holdup assay; set-up: key: below the threshold = too weak to quantify, mostly under pKd 3.1 to 4; conditions: plain residues with an end cap or a label only (N-terminal biotin on a linker: ado-ado)

Row | pKd | Binder
53 | below the threshold | B1
54 | 3.63 | B2

From article PMC9482650, “Quantitative fragmentomics allow affinity mapping of interactomes” (Nature Communications, 2022)
